What was measured:
[1] = molecular target: T1, ROR221 shuffle variant (Ig-like domain and CRD of ROR2, kringle domain of ROR1) (human (ROR1/ROR2 chimera), UniProt Q01973 30-937); experiment: cell imaging (CellInsight) on CHO cells expressing the shuffle construct
T1 chain: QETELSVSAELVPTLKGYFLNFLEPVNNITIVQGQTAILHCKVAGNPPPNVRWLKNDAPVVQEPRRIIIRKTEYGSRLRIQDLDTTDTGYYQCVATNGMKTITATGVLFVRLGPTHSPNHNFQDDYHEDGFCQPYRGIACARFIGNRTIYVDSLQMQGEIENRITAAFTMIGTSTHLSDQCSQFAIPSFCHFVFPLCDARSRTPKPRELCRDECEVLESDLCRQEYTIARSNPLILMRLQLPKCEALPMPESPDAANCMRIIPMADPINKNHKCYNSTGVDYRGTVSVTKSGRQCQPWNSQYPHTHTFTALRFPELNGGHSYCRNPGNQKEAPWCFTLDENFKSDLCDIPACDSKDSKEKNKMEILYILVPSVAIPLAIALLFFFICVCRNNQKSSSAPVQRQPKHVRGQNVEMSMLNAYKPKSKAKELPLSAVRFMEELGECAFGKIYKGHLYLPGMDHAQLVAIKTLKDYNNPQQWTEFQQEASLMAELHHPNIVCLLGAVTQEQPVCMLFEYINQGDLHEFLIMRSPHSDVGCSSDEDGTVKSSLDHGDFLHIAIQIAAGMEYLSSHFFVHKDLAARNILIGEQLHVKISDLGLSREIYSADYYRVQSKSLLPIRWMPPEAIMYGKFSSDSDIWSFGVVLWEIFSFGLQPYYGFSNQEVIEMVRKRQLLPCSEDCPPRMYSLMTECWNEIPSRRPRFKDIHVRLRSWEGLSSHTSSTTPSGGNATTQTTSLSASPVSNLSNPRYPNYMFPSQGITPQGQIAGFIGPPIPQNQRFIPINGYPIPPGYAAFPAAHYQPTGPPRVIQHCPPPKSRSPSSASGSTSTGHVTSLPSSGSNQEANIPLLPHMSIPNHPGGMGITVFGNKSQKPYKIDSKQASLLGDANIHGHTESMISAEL
Description: (§1) Binding was determined […] using a cell imaging screening system (Celllnsight, Thermo Fisher) as per manufacturer's recommendations. In short, CHO cells expressing shuffle constructs ROR112, ROR121, ROR122, ROR211 or ROR221 (3,000 cells/well in 384-well plates) were incubated with antibody or control samples for 18 h at 37° C./5% CO₂, washed and incubated with an Alexa488-labeled detection antibody for 4 h. Hoechst dye was added and fluorescence images were collected, measuring total spot intensity (RFU).

[2] = molecular target: T2, ROR121 shuffle variant (Ig-like domain of ROR1, CRD of ROR2, kringle domain of ROR1) (human (ROR1/ROR2 chimera), UniProt Q01973 30-937); experiment: as above
T2 construct: Transiently expressed on CHO cells
T2 chain: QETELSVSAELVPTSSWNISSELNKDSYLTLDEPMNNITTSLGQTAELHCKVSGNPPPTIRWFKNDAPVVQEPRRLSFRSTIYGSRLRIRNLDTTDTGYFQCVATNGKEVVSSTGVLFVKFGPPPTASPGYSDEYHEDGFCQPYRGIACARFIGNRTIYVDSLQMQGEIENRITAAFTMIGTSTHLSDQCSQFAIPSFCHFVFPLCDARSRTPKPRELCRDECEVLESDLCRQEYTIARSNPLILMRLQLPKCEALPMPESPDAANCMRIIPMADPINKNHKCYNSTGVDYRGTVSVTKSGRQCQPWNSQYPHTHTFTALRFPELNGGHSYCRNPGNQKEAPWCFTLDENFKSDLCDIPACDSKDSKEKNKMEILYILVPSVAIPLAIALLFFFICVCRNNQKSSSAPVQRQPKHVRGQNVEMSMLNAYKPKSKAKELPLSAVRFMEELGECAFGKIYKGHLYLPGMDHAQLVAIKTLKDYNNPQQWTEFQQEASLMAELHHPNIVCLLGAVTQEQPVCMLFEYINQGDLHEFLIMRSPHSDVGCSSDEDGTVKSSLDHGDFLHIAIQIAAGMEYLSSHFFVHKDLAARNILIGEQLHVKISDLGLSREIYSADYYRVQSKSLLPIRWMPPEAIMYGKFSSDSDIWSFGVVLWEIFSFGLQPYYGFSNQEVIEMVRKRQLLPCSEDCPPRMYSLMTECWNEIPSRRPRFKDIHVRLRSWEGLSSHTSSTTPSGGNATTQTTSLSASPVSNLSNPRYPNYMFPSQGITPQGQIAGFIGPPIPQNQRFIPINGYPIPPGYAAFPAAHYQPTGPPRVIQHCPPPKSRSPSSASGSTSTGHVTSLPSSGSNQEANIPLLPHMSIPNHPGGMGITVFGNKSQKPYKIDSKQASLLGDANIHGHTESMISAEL
Description: as §1

[3] = molecular target: T3, his-tagged ROR2 extracellular domain (ROR2-ECD, G&P Biosciences, cat. no. FCL0192) (human, UniProt Q01974 34-403); experiment: BLI (Octet HTX), antibody on anti-human IgG Fc sensor, ROR2-ECD as analyte
T3 construct: Bought protein; also called human ROR2-ECD; recombinant human ROR2-ECD; not shown: his tag
Description: Experiments were carried out while shaking at 1,000 RPM at 30° C.
Anti-Human IgG Fc Capture (AHC) biosensors (ForteBio, cat. no. 18-5060) were pre-conditioned by exposure to 10 mM glycine (Riedel-de Haen, cat. no. 15527) buffer pH 1.7 for 5 s, followed by neutralization in Sample Diluent (ForteBio, cat. no. 18-1048) for 5 s; both steps were repeated 5 times. Next, AHC sensors were loaded with the antibody (2.5 μg/mL in Sample diluent) for 600 s. After a baseline measurement in Sample Diluent (300 s), the association (1,000 s) and dissociation (1,000 s) of a commercially available his-tagged ROR2 extracellular domain (ROR2-ECD, G&P Biosciences, cat. no. FCL0192) was determined using a concentration range of 6.25-400 nM with two-fold dilution steps in Sample Diluent. The calculated molecular mass of ROR2 ECD based on their amino acid sequences of 42.7 kDa was used for calculations. For each antibody a reference sensor was used, which was incubated with Sample Diluent instead of antigen. AHC sensors were regenerated by exposure to 10 mM glycine buffer pH 1.7 for 5 s, followed by neutralization in Sample Diluent for 5 s; both steps were repeated twice. Subsequently sensors were loaded again with antibody for the next cycle of kinetics measurements.
The Y-axis was aligned to the last 10 s of the baseline, Interstep Correction alignment to dissociation and Savitzky-Golay filtering were applied.

- RFU (total spot intensity) [1]: 0 RFU
- binding result [1]: no binding (tested: RFU = 0)
- RFU (total spot intensity) [2]: 0 RFU
- binding result [2]: no binding (tested: RFU = 0)
- Kd [3]: 1.6 nM
- koff [3]: 0.00095 s⁻¹
- kon [3]: 610000 M⁻¹ s⁻¹
B1: chIgG1-ROR2-A (antibody, V domains shown)
VH: QSVEESGGRLVTPGTPLTLTCTVSGFSLSSYSMSWVRQAPGKGLEWIGVIYVNSKTWYANWAKGRFTISKTSTTVDLKITSPTTEDTATYFCARGDAGYTTNSWLWGPGTLVTVSS
VL: AFELTQTPASVSEPVGGTVTIKCQASESIDNYCSWYQQKPGQPPKLLIYQAFKLASGVPSRFRGSGSGTQFTLTISDLESDDAATYYCQSYSGISTTAFGGGTEVVVK
notes: Rabbit-human chimeric antibody; also called ROR2 specific antibody A
